Experimental findings from the DeepSol protein solubility set are described below.

A short description of this series: soluble on expression in E. coli; label from the status in PepcDB or PDB records.
Regarding “MQIDNISDEQVVIVRMSCYLKKDEIFKNIERYGYQSSDIKKISPPFPLNILPVPKPYYFYLYDTHLNQIYDLAWSCNDFLMFEIFILDRESIKYIDKDKLFKSRETLYSNFKSIKNQCKNYFFCGFDFDAPYFKSGVSQVADYNFVPDAFSLFFI”, the “soluble on expression in E. coli” value is on record as “not soluble”. The entry for “MQKKSIYVAYTGGTIGMQRSEQGYIPVSGHLQRQLALMPEFHRPEMPDFTIHEYTPLMDSSDMTPEDWQHIAEDIKAHYDDYDGFVILHGTDTMAYTASALSFMLENLGKPVIVTGSQIPLAELRSDGQINLLNALYVAANYPINEVTLFFNNRLYRGNRTTKAHADGFDAFASPNLPPLLEAGIHIRRLNTPPAPHGEGELIVHPITPQPIGVVTIYPGISADVVRNFLRQPVKALILRSYGVGNAPQNKAFLQELQEASDRGIVVVNLTQCMSGKVNMGGYATGNALAHAGVIGGADMTVEATLTKLHYLLSQELDTETIRKAMSQNLRGELTPDD” is “soluble”; for “MQKNNNKLTMSARFGEWYKEATENCAERELYATSLIARMDWVVDPISSKSYRYDLTTDLNKNHSSAWYDVATEICNKRKETVIRAILEDNIKIENF” it is “soluble”; for “MQKRDGHIHTPFCPHGSNDTLRQYAEEALKKGFESITFTEHAPLPPSFTDPTPLKDSAMAQASLERYIHEISGLKKEYRGQLSIRTGLEVDYIAEFEDEITLFLDTYGPYLDDSILSVHFLRTDSSYLCLDYDEHTFKELISACGSIEAVYEQYYRSIYSSIVASLGVYKPKRVGHITLVQKFIKLFPYSMSEHIRGLVSLCLNAIEENGMELDFNTSGLRKTYAGGIYIEDWMLNEAKQKKIPLVFGSDAHQAGDVGYAYEAFLERCLEHHHHHH” it is “not soluble”. Regarding “MQKSDEVTEKFKRYCNQLEKYGQTENVHSPVMAMLRRKGRKQLIEIMKRDGDCTSSINKLWIVGYYHPFQFFIRDKEKNMAIAVLLTMFCGELQEMLSLPDDKYPALWNMYIGDFHRYMPDEEIQKCLAVGYYSRAIDLDPNQGRAFHVLAGLRADLNVAQKLRLMILGQLADAPYKKGTELLEYLKFPQKESTDKLMVDFVIWALNEKSKRMDYQMTGIKIVNEFKAEIEQKLEFDWSLIMSTCRLASKLAMKKFGFQQFYNCFDTISTLYITIYSRTISSKCLLAEAISWISDSAEILGHLDEQKNEPHFQKLSVFAKTKWNELNDLVMNHINSVFTSMSLTINPSISMTSFLLNGPISEPNVEFLSQLINYLVSVEFPPMEIIHDREESGPLLRRINQSEQKRLDIQIKTQNDEVNREDWRPVYVLMDYDVIVDKIRIALKIWDIDDFICILPSTVLDELDYQKTKNRAVRPVIRALMELQAEGKIVLKKCDNERSCAEQLVQSARRSAEDHKHIVAFLCKNPSEQKEMEGVTFYDIDQFYMKYLE”, the “soluble on expression in E. coli” value is given as “not soluble”. Then “MQKVHVQYIDGETDQMLRQDDLDGYTDETIPYSTAEGIKKFEGDGYELFKDNFPAGEKFDNDDTNDQFYTVIFKHHRENVDPNHSSADGTKGTKTLTETVHYKYANGTKAAEDQTAQVTFTRNGVLDDVTGIVAWGKWNEASQSYKALTSPTIAGYAPSEAVVKRSSNSDAEQGPTLTVIYTADA”, with “soluble”; and “MQLDIDGLKVLFPYDYVYPEQVLYMKEVKKALDARGHGLLEMPSGTGKTVSLLSLVLAYMISYPDKLDKLVYCSRTIPEIEKCVEEMKVLYDYWEKETGQPVAKITVAMSARKNLCVNEPVAALRFGNTVDSACQKLTASSARQKRAEDPTLEACDYFENFEAKSVPMQNGVWNLVKICEFWGTDKIEIFREKIQEI”, with “not soluble”.

Consider “MQLSTLTALSPLDGRYQDKVTPLRAIFSEFGLMKFRVAVEVRWLQKLASTADITEVPPFSTQANAFLDGIVANFNEADAARIKEIERTTNHDVKAVEYFLKEKIQNEVELVKVSEFIHFACTSEDINNLSHALMLSTARDEVILPEWQKLIDEITRLAEEYKTIPLLSRTHGQPASPSTVGKEMANVVYRLKRQFKQLQNAEILGKINGAVGNYNAHLSAYPNIDWHKFSEEFVTSLGIQWNPYTTQIEPHDYITEFFDAVVRFNTIIIDFDRDLWGYIALNHFKQRTIAGEIGSSTMPHKVNPIDFENSEGNLGLANAVMTHLGQKLPISRWQRDLTDSTVLRNLGVGLGYCLIAYASTRKGISKLEVNQPHLLEELNQNWEVLAEPIQTVMRRYGIEKPYEKLKELTRGKRVTEQAMREFIDKLDIPQEEKLRLQKLTPATYIGAAVELVEKLS”, for which the “soluble on expression in E. coli” value is “not soluble”. “MQNHVISLASAAERRAHIAATFGARGIPFQFFDALMPSERLEQAMAELVPGLSAHPYLSGVEKACFMSHAVLWKQALDEGLPYIAVFEDDVLLGEGAEKFLAEDAWLKERFDPDSAFIVRLETMFMHVLTSPSGVADYCGRAFPLLESEHWGTAGYIISKKAIRFFLQHFVMLQPEQIKPIDLMMFSDFFDKEGMPVYQVSPALCAQELHYAKFHDQNSALGSLIEHDRLLNRKQQRRDSPANTFKRRLIRALTKISLEHHHHHH”: the “soluble on expression in E. coli” value is “soluble”. The entry for “MQNHVISLASAAERRAHIAATFGSRGIPFQFFDALMPSERLEQAMAELVPGLSAHPYLSGVEKACFMSHAVLWKQALDEGLPYIAVFEDDVLLGKDAEKFLAEDTWLEERFDKDSAFIVRLETMFAKVIVRPDKVLNYENRSFPLLESEHCGTAGYIISREAMRFFLDRFAVLPPERIKAVDLMMFTYFFDKEGMPVYQVSPALCTQELHYAKFLSQNSMLGSDLEKDREQGRRHRRSLKVMFDLKRALGKFGREKKKRMERQRQAELEKVYGRRVILFKLEHHHHHH” is “soluble”; for “MQNIHQHNYVISLKTADARRQHIIQEFAKHNIPFQFFDACSIENNLYMDIEKHLPMLLNSKLSNSEKGCLMSHFLLWKKCVLDDIPYMTIFEDDIILSDESNEFISDYSWVNNRFYEQKEILIKFETFLMPVIRKFTKINEYKERAFNQLISRHFGTASYLISKEAAKYLILLYEKLPADELIAVDESIFNVLLNDKNLCVYQLEPAICVQELQFNKENSLLISQIEEDRYKNQKQNKPRKTLKQRIIKVCYNINRIFKKIKKTKLSDEKDINSDIVKFKLEHHHHHH” it is “not soluble”; for “MQPKVTVAQAAELMGVSDRTIRKKIEEGEITAEPAQSAKGKGRPGYLIPVSSLPVDAQRKYWTTSEVAAASEIGEAEPDKPETTGIPYTLAELEHAVGKEKFQEMMAEAEYRLQIVEQAMNPPQGVERTIWINRLAKKYGKSTATIYRDIEKFQEWGILGLMRKSRLLTQGPQRTSIEPEVERFIRAKYLDRRKPKPAHIFRETVRFCATNGYKAPSRASVFRYISDMERYEPDLCCLAREGEEAYWKKFAEKATRKEPEFVNQVWMGDHHKLDMFISYKGKPVRPWLTVWFDVCSRVVVGWCLSVQANGRTIALALRHALLPKKIKRDDGTEDVLEIGGIPGMIYIDNGEDYKAQVRAGKKHEDWELSRETRGICASLDIKVQFATPYHPWAKAHVERFFGTFTDQFTRYQPGWCGPNNEDRPEGFDEKELHEKGLLLDLEELSERIDTWLYEYHTTEHRSLGMTPMQKHFSTPKIREGFADERALDICLMDVERAAVTPNGIERFGTRGRKRWYWHPELPAYAGQKVIIRYDPNRIGELLVFHPKTGKYLFTATNKELLDFNATKDDIQELQKRRASRRKAVKEMVRNAQQASLENIVAEREAAGSRMTSGKAGSTKGKVRAMIGTEQVVRQREEQANLAKTKRPTKTTSAFDDYILREGTEG” it is “not soluble”. The entry for “MQPQAFYRVVAEDFTAVDGIIRRQLTSRVPLVEKIGDYIISAGGKRLRPLLVLLAGKTLGYKGDDLCLLAATIEFLHTSTLLHDDVVDASGLRRGRSTANALWGNAPSVLVGDFLYARSFEMMVELGSMPVMRIISQATRVIAEGEVLQLSKVRDASTTEETYMEVIRGKTAMLFEASTHSAAALCQAGEEQSEALRRFGDYLGIAFQLVDDLLDYRGDAATLGKNVGDDLAEGKPTLPLIVTMRDGTEEQAALVRKAIQQGGSQDLESVCAAVEAAGALDYTANLARDYAARAIACLDTLPDNEYRSALVELSEFAVARTH” is “not soluble”. Then “MQPVLVFKLTADFREDPDPRKVNLGVGAYRTDDCHPWVLPVVKKVEQKIANDNSLNHEYLPILGLAEFRSCASRLALGDDSPALKEKRVGGVQSLGGTGALRIGADFLARWYNGTNNKNTPVYVSSPTWENHNAVFSAAGFKDIRSYRYWDAEKRGLDLQGFLNDLENAPEFSIVVLHACAHNPTGIDPTPEQWKQIASVMKHRFLFPFFDSAYQGFASGNLERDAWAIRYFVSEGFEFFCAQSFSKNFGLYNERVGNLTVVGKEPESILQVLSQMEKIVRITWSNPPAQGARIVASTLSNPELFEEWTGNVKTMADRILTMRSELRARLEALKTPGTWNHITDQIGMFSFTGLNPKQVEYLVNEKHIYLLPSGRINVSGLTTKNLDYVATSIHEAVTKIAENLYFQSHHHHHHDYKDDDDK”, with “soluble”; and “MQQSTLVRLKEKLTLKNPIMVVGLPGVGLVGKLVAEHLVDELAAERIMEVYSPHFPPQVLVNKDCTVRPVSNTIYLGKANETDVLFLVGDHQSTTAQGHYELCSLYLDIAEELKVPRIYTLGGYPTGKLTYEDTVLGVANSTELIEEIKQYGVEFRESEPSGGIVGASGLLVAFSGMRGIDAACLMGMTPGYLMDPKSAQSLLKVLCNIFGIEVNTDSLKKKAEEMENILEKLKEKEEQQNLPEVKPTEEDLRYIG”, with “soluble”; and “MQRMGMVIGVKPEMIAEYKRLHAAVWPEVLALISESNIRNYTIFLREPENLLFGYWEYHGSDFSADMAKIAASPKNQEWWSFTIPCQQPLESRKEGEWWAMMEETFHLD”, with “not soluble”.

As to “MQRNSENSKNGRRVSSSSYMSAAAAAGAAAALRLSVDARAGKEYTTQTHQRDKT”, the “soluble on expression in E. coli” value is “not soluble”. Take “MQRQEQLKKWLAEQYPGDEIQLEFAAADADFRRYFRAIWPDGASRIVMDAPPEHIGTDAYVKVRDIFSMVKVPEIYLRDRDQGFIVMEDLGKVTYLAALQHDERPFVHRHLLLEALDTLVDIQKASQPEVLPEYDETLLTRELNLFPEWFCAKELGKPLNFKQRQLWDAGVQALLPALLTQPKVFVHRDFIVRNLMLTPGTPGVLDFQDAVYGPISYDAVSLLRDAFIEWDEEFVLDLAIRYWEKARAAGLPVPEAFDDFYRAFEWMGVQRHLKVAGIFARLYHRDGKDKYLAEIPRFIKYLKRTTRRYAELAPFYQLLVDLVGRDATDEELQSSYPVLGVKGHLEHHHHHH”: the “soluble on expression in E. coli” value is listed as “not soluble”.

In the case of “MQRSLFSKFRQILTYKCDWYGKELILADKTYPSTQRCAKCGYVKTGDEKITLQGNQKHGTKHNEYICYKCDYSNDRDENAVLNLLALARLEHHHHHH”, the “soluble on expression in E. coli” value was “not soluble”. Then “MQRVAISTLGCKINQFESAAMTESLGREGFRVVPFDEDADIYVINTCTVTAKTDAESRRLIRRALRRNPAARVVVTGCYAQVAPDAVKDLPGVALVVGNSEKRSIGELLRDAAPAEKVMVSDISRERTAEGLRLESFAEHTRAFLQVQNGCDAFCSYCIVPYARGRSRSVSFSEALAGIRNFAAQGFREVVLTGIHLGAYGLDLAPPTNLLALLEASEAEKAVPRLRVGSVEPNELTDALVDFLARSETVCPHLHIPLQSGDDRVLERMGRRYTAAFFRERVERLVAVVPDIFIGCDVIAGFPGETDEEFQNTVRLIEELPVASLHVFPYSRREGTAAARMEGQVDGKVIRGRAEILREVGERKRRSFCERFVGRELAVLMQNRGRDGEAVGLSRNYLPVRVPGYAGEMNAEATVMVTEVTPDGVGGIIRGLEHHHHHH”, with “soluble”. The entry for “MQSETTSKHTDILTSLQLSLTPRRDPTFEETTTDEQTSVQIALSPCLNATIASSKYSLDDLDVSAQYLWDTAADNLIYTTSNAREIPIRTRPTTFLTKRMTEGLQVDVTGAPTSAWIAHPLTFEVIYHHLANILCATPVFYVPHPQLLIAVASHIVSPQLESWLSTFSTPLVKDALIYHEGFPAHIKSSAWQQPLHHMSSDQLSA” is “not soluble”.
